Consider 1 protein from publication PMC11736000, “Structural and functional analysis of a bile salt hydrolase from the bison microbiome” (The Journal of Biological Chemistry, 2024).

As usually defined, the Km is the concentration of substrate that gives half-maximal velocity. As a reminder, the kcat is the number of substrate molecules converted per active site and unit of time at saturation. A word on the kcat/Km: it is the second-order rate constant that governs catalysis at low substrate concentration.

Common to all, as to assay: steady-state kinetics (KM), o-phthaladehyde assay; HPLC/MS
Format in all cases: biochemical, Arthrobacter citreus

Substrate in data set [1]: C[C@H](CCC(=O)NCC(=O)O)[C@H]1CC[C@H]2[C@@H]3CC[C@@H]4C[C@H](O)CC[C@]4(C)[C@H]3C[C@H](O)[C@]12C
Substrate in data set [2]: C[C@H](CCC(=O)NCC(=O)O)[C@H]1CC[C@H]2[C@@H]3[C@H](O)C[C@@H]4C[C@H](O)CC[C@]4(C)[C@H]3C[C@H](O)[C@]12C
Substrate in data set [3]: C[C@H](CCC(=O)NCCS(=O)(=O)O)[C@H]1CC[C@H]2[C@@H]3CC[C@@H]4C[C@H](O)CC[C@]4(C)[C@H]3C[C@H](O)[C@]12C

B1: bile salt hydrolase from Arthrobacter citreus EINP1 (BSHAc) (Arthrobacter citreus) (protein)
chain: CTGIRYSDGSGNLYLARNLDWTSDFGERVVVTPTGYTTKSPFGAVPAIRHAVIGMGIVQEDTPLYFDCGNDAGLAVAGLNFPGYAQYATEAVDGATNVAAFEFPLWVASQFASVDEVEAALADVVIVDRPINDKYPSSLLHWIIGDSKRAIVVEYTSDGLHVFDDDVDVLANQPGFGWHHENLRNYLNASPDFPEKIVLNRADLVPFGSGSLMRGIPGDYYSPSRFVRAAYVHAHYPGKSTEEENVSRAFHTLQQVAMVDGSAAMGSGEFEKTTYTGLFSSRTMTYYWNTYEDPAVRSVAMADHAADGTELVVV
notes: C-terminally hexahistidine-tagged recombinant BSHAc; NCBI WP_342023006.1
As to B1, the Km worked out at 380 µM in data set [1], 1700 µM in data set [2] and 740 µM in data set [3]. The kcat in data set [1] is 1630 ± 40 s⁻¹; in data set [2] it was 1500 ± 50 s⁻¹; in data set [3], 342 ± 6 s⁻¹. The catalytic efficiency (kcat/Km) amounted to 4.3e+06 ± 400000 M⁻¹ s⁻¹ in data set [1], 880000 ± 10000 M⁻¹ s⁻¹ in data set [2] and 460000 ± 50000 M⁻¹ s⁻¹ in data set [3].
